Reference: patent US12611439B2, “Ionic self-assembling peptides” (3-D MATRIX, LTD., priority 2018, dated 2026)
Entries after “also recorded” stand apart in the source; their conditions may differ. Peptide text beside a SMILES is read from it.

How the values were obtained:
[1] = Net charge of self-assembling peptides in solution; assay type: physicochemical; conditions: for Net charge at pH 7.5: in solution at pH 7.5
From the text: Several exemplary self-assembling peptides described herein (Table 5; SEQ ID NO:21-40) were designed to have a net charge, positive or negative, when formulated at pH 7.5. In contrast, previously-described self-assembling peptides have a net zero charge at the same pH.

[2] = Appearance (solubility) of aqueous compositions at pH 2.5 and pH 7.5; assay type: physicochemical
Method: To determine the solubility of exemplary self-assembling peptides in aqueous pharmaceutical compositions formulated at acidic and neutral pH, the appearance of the pharmaceutical compositions was assessed. Homogenous and transparent appearance reflects sufficient solubility of the peptides in solution and minimal hydrogel formation. […] The appearance of exemplary self-assembling peptides at pH 2.5 and pH 7.5 is shown below in Table 6 and FIG. 20.

porcine esophagus mucosa = experiment: Submucosal injection in in vivo porcine esophagus
Method: In another embodiment, mucosal aggregation visualized as white precipitate near the injection site was evaluated in an in vivo porcine esophagus.

[3] = Frequency sweep test (storage modulus) before and after exposure to DMEM; assay type: physicochemical; conditions: pH 7.5; for increase of mechanical strength after exposure to DMEM: 0.15% (w/v); for rheological properties (mechanical strength) before and after exposure to DMEM: 1% (w/v) peptide
Method: Peptides formulated as aqueous solutions were placed between the plates of a rheometer (DHR-1, TA Instruments, 20 mm plates at a measuring geometry of 500 μm or 40 mm cone and plate at a measuring geometry of 2.0° of cone angle) and frequency stress sweep tests were performed at 0.1 Hz to 10 Hz of frequency with 0.1% of strain; measurements were performed after 2 minutes of relaxation time at 37° C. To do frequency sweep tests after exposure to Dulbecco's Modified Eagle Medium (DMEM), 10 mL of DMEM was added in chamber surrounding the plates, the sample in plates was submerged into the DMEM and the frequency test was performed as described after 20 minutes.
Rheological properties of aqueous pharmaceutical compositions comprising the exemplary self-assembling peptides KLNL12 (SEQ ID NO:21), KIQI13 (SEQ ID NO:29), or NLEL12 (SEQ ID NO:33) were determined by performing a frequency sweep test over storage modulus.
In some embodiments, peptides formulated as aqueous solutions, volume 700 μl, were placed between the plates of a rheometer (DHR-1, TA Instruments, 40 mm cone and plate at a measuring geometry of 2.0° of cone angle) and frequency sweep tests were performed at 0.1 Hz to 10 Hz of frequency with 0.1% of strain; measurements were performed after 2 minutes of relaxation time at 37° C. In some embodiments, frequency sweep tests were performed after exposure to Dulbecco's Modified Eagle Medium (DMEM), where 10 mL of DMEM was added in chamber surrounding the plates, the sample in plates was submerged into the DMEM and the frequency test was performed as described after 20 minutes.

pig stomach submucosa = experiment: Submucosal injection in in vivo porcine model, stomach; conditions: for Appearance of stomach mucosa / submucosal elevation after injection / submucosal elevation over time compared with saline and MucoUp: pH 7.5; for Appearance of stomach mucosa: 2 mL injected; for submucosal elevation after injection / submucosal elevation over time compared with saline and MucoUp: 2 mL of 0.1% (w/v) peptide, 0.9% NaCl, pig stomach
Method: An in vivo porcine animal model was used to perform endoscopic mucosal and submucosal dissections as described in Uraoka et al. (2009) Drug Des. Devel. Ther. 2:131-8, incorporated herein by reference. Briefly, 2 mL of select peptide formulations were injected in between the […] in stomach of a pig and the submucosa was dissected using electro-knife. The gross appearance of the injection site and of dissected submucosal tissues at the injection sites were analyzed. […] Therefore, an in vivo porcine model system was used to assess the ability of these compositions to induce submucosal elevation upon injection into gastrointestinal submucosa, and the degree of tissue damage. In this model, submucosal injections with liquid compositions were performed and the morphology of the site of injection analyzed. Submucosal injection with aqueous solutions is used during the excision of lesions from the gastrointestinal tract in order to facilitate removal of the lesion by providing a safety cushion during resection (see, e.g., Kim et al. (2013) World J. Gastroenterol. 19(20): 3069-76, incorporated herein by reference). Here, aqueous pharmaceutical compositions comprising three exemplary self-assembling peptides formulated at pH 7.5: KLNL12 (SEQ ID NO:21), NLKL12 (SEQ ID NO:23) or KIQI13 (SEQ ID NO:29), were compared to an aqueous pharmaceutical composition comprising the previously described RADA16 self-assembling peptide (formulated at pH 2.5), a 0.4% solution of sodium hyaluronate (MucoUp®, Boston Scientific Japan K.K., Tokyo, Japan), and saline, pH 7.5.

[4] = Viscosity determination at increasing shear rate (shear thinning); assay type: physicochemical; conditions: 1% (w/v) peptide, pH 7.5
Method: Peptides formulated as aqueous solutions (200 μL), were placed between the plates of a rheometer (DHR-1, TA Instruments, 20 mm plates at a measuring geometry of 500 μm) and the viscosity was measured from 0.001 s^−1 to 100 s^−1 shear rate. Thixotropic Measurements
In some clinical applications, administration of pharmaceutical compositions comprising self-assembling peptides requires exposing the compositions to pressure and/or shear thinning (e.g., during injection through a syringe needle or transferred via a pump-based system). […] To determine the shear thinning properties of pharmaceutical compositions of the self-assembling peptides formulated at pH 7.5, formulations comprising varying ionic strengths were prepared using different concentrations of sodium chloride, and viscosity measured at increasing shear rates. Thixotropic properties of formulations were also determined as well as the storage modulus over time at specific frequencies and pressure.
FIGS. 6-8 show the experimentally determined viscosity of aqueous pharmaceutical compositions comprising either 1% (w/v) KLNL12 (SEQ ID NO:21), 1% (w/v) IQIK13 (SEQ ID NO:28), or 1% (w/v) NLEL12 (SEQ ID NO:33), at pH 7.5. FIGS. 9 and 10 show the experimentally determined viscosity of aqueous pharmaceutical compositions comprising either 1% KLNL12 (SEQ ID NO:21) or 1% NLEL12 (SEQ ID NO:33), and 0.9% NaCl (to mimic physiological conditions) at pH 7.5. […] That is, decreased viscosity with increasing sheer rate. This property may advantageously facilitate application and use of the pharmaceutical compositions (e.g., due to decreased viscosity while pumping) while maintaining a desirable viscosity at a site of application (e.g., where no sheer force is being applied).

[5] = porcine esophagus, compositions of Table 9

Molecule: Ac-KLNLKLNLKLNLK-NH2 [KLNL13]
- Net charge at pH 7.5 [1]: +4

Molecule: Ac-KLDLKLDLKLDL-NH2 [KLDL12, reference compound]
- Appearance at different pH: At pH 7.5 [2]: phase separation and cloudy appearance
- Net charge at pH 7.5 [1]: 0
- Net charge at pH 7.5 ([1]; listed as KLD12): about zero

Molecule: CC(=O)N[C@@H](CCC(N)=O)C(=O)N[C@@H](CC(C)C)C(=O)N[C@@H](CCC(=O)O)C(=O)N[C@@H](CC(C)C)C(=O)N[C@@H](CCC(N)=O)C(=O)N[C@@H](CC(C)C)C(=O)N[C@@H](CCC(=O)O)C(=O)N[C@@H](CC(C)C)C(=O)N[C@@H](CCC(N)=O)C(=O)N[C@@H](CC(C)C)C(=O)N[C@@H](CCC(=O)O)C(=O)N[C@@H](CC(C)C)C(N)=O [QLEL12, Ac-QLELQLELQLEL-NH2] (Ac-QLELQLELQLEL-NH2)
- Appearance of stomach mucosa (porcine esophagus mucosa; porcine esophagus, 0.2% (w/v) peptide with NaCl 0.9%, pH 7.5): clear/transparent
- mucosal aggregation at injection sites (porcine esophagus mucosa; [5]): mucosal aggregation was not observed
- rheological property versus peptide concentration ([3]; 0.1% to 0.3% (w/v), 0.9% NaCl): linear relationship
- increase of mechanical strength after exposure to DMEM ([3]; 0.9% NaCl, frequency 0.1 Hz): 23 fold
- increase of mechanical strength after exposure to DMEM ([3]; 0.9% NaCl, frequency 1 Hz): 20 fold
- increase of mechanical strength after exposure to DMEM ([3]; 0.9% NaCl, frequency 10 Hz): 9 fold
- Appearance of stomach mucosa (pig stomach submucosa; 0.2% (w/v) peptide with NaCl 0.9%): no mucosal aggregation was observed; also recorded: do not appear to alter submucosal tissue morphology; also recorded: clear/transparent

Molecule: Ac-IKIQIKIQIKIQI-NH2 [IKIQ13]
- Net charge at pH 7.5 [1]: +3

Molecule: Ac-RADARADARADARADA-NH2 [RADA16, reference compound]
- mucosal aggregation at injection sites (porcine esophagus mucosa; pig, in vivo): Mucosal aggregation was observed
- Appearance of stomach mucosa (porcine esophagus mucosa; pig, in vivo, pH 2.5): cloudy/aggregation
- Appearance at different pH: At pH 7.5 [2]: precipitates; also recorded: phase separation and cloudy appearance
- net charge as a function of pH ([1]; around neutral pH): about 0
- period after injection until mucosal aggregation (pig stomach submucosa; pig, in vivo, pH 2.5): 10 to 15 min

Molecule: Ac-QIKIQIKIQIKIQ-NH2 [QIKI13]
- Net charge at pH 7.5 [1]: +3

Molecule: Ac-INIKINIKINIKI-NH2 [INIK13]
- Net charge at pH 7.5 [1]: +3

Molecule: Ac-IQIKIQIKIQIKI-NH2 [IQIK13]
- Net charge at pH 7.5 [1]: +3
- viscosity in response to increasing shear rate [4]: exhibit sheer thinning

Molecule: Ac-RANARANARANARANA-NH2 [RANA16]
- Net charge at pH 7.5 [1]: +4

Molecule: Ac-NLDLNLDLNLDL-NH2 [NLDL12]
- Net charge at pH 7.5 [1]: −3

Molecule: Ac-IQIKIQIKIQIK-NH2 [IQIK12]
- Net charge at pH 7.5 [1]: +3

Molecule: Ac-KVNVKVNVKVNV-NH2 [KVNV12]
- Net charge at pH 7.5 [1]: +3

Molecule: CC(=O)N[C@@H](CC(C)C)C(=O)N[C@@H](CCC(=O)O)C(=O)N[C@@H](CC(C)C)C(=O)N[C@@H](CCC(N)=O)C(=O)N[C@@H](CC(C)C)C(=O)N[C@@H](CCC(=O)O)C(=O)N[C@@H](CC(C)C)C(=O)N[C@@H](CCC(N)=O)C(=O)N[C@@H](CC(C)C)C(=O)N[C@@H](CCC(=O)O)C(=O)N[C@@H](CC(C)C)C(=O)N[C@@H](CCC(N)=O)C(N)=O [LELQ12, Ac-LELQLELQLELQ-NH2] (Ac-LELQLELQLELQ-NH2)
- mucosal aggregation at injection sites (porcine esophagus mucosa; pig, in vivo): mucosal aggregation was not observed
- Appearance of stomach mucosa (porcine esophagus mucosa; pig, in vivo, pH 7.5): clear/transparent

Molecule: Ac-KLNLKLNLKLNLKLNLK-NH2 [KLNL17]
- Net charge at pH 7.5 [1]: +5

Molecule: Ac-IEIKIEIKIEIKI-NH2 [IEIK13]
- Appearance at different pH: At pH 7.5 [2]: phase separation and cloudy appearance

Molecule: Ac-LKLNLKLNLKLN-NH2 [LKLN12]
- Net charge at pH 7.5 [1]: +3

Molecule: Ac-NLKLNLKLNLKL-NH2 [NLKL12]
- Net charge at pH 7.5 [1]: +3
- submucosal elevation after injection (pig stomach submucosa): resulted in submucosal elevation
- submucosal elevation over time compared with saline and MucoUp (pig stomach submucosa): better submucosal elevation than saline and MucoUp®

Molecule: Ac-KLTLKLTLKLTL-NH2 [KLTL12]
- Net charge at pH 7.5 [1]: +3

Molecule: CC[C@H](C)[C@H](NC(=O)[C@H](CCC(N)=O)NC(=O)[C@@H](NC(=O)[C@H](CCCCN)NC(=O)[C@@H](NC(=O)[C@H](CCC(N)=O)NC(=O)[C@@H](NC(=O)[C@H](CCCCN)NC(=O)[C@@H](NC(=O)[C@H](CCC(N)=O)NC(=O)[C@@H](NC(=O)[C@H](CCCCN)NC(C)=O)[C@@H](C)CC)[C@@H](C)CC)[C@@H](C)CC)[C@@H](C)CC)[C@@H](C)CC)C(N)=O [KIQI12, Ac-KIQIKIQIKIQI-NH2] (Ac-KIQIKIQIKIQI-NH2)
- Appearance of stomach mucosa (porcine esophagus mucosa; porcine esophagus, 0.1% (w/v) peptide with NaCl 0.9%, pH 7.5): cloudy/aggregation
- mucosal aggregation at injection sites (porcine esophagus mucosa; [5]): Mucosal aggregation was observed
- Appearance of stomach mucosa (pig stomach submucosa; 0.1% (w/v) peptide with NaCl 0.9%): do not appear to alter submucosal tissue morphology; also recorded: Clear/transparent

Molecule: Ac-KIQIKIQIKIQIK-NH2 [KIQI13]
- Net charge at pH 7.5 [1]: +4
- rheological properties (mechanical strength) before and after exposure to DMEM ([3]; 0.9% NaCl): increased after DMEM treatment
- rheological properties (mechanical strength) before and after exposure to DMEM [3]: increased after DMEM treatment
- submucosal elevation after injection (pig stomach submucosa): resulted in submucosal elevation
- submucosal elevation over time compared with saline and MucoUp (pig stomach submucosa): better submucosal elevation than saline and MucoUp®

Molecule: Ac-LNLKLNLKLNLK-NH2 [LNLK12]
- Net charge at pH 7.5 [1]: +3

Molecule: Ac-KANAKANAKANA-NH2 [KANA12]
- Net charge at pH 7.5 [1]: +3
